Values quoted from earlier work, collected in article PMC8441013.

Target: neuromedin B (Homo sapiens) (UniProt P08949)
UniProt P08949, sequence (P08949 whole entry, looked up): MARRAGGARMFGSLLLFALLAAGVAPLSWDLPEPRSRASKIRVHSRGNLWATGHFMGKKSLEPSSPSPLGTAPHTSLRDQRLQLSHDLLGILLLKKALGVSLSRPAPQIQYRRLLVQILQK

Kd: 5 nM
Substance: NMBR (from UniProt P28336)
